This note sets out measurements from publication PMC4351760.

This experiment concerns the target R276S/M395R GltPh mutant (Pyrococcus horikoshii) (UniProt O59010). Nature of the experiment: crystal structure.

In turn, “R276S/M395R GltPh mutant (from UniProt O59010 1-417) (natural protein)” yielded a stoichiometry N of 3.

The term stoichiometry N denotes the number of molecules, sites or subunits per partner or assembly.
